Biological target: human ErbB2 (HER2) expressed on cells (Renca-lacZ/ErbB2 murine renal cell carcinoma cells); MDA-MB453 human … (human, UniProt P04626 23-1255)
Experiment: cell-based or functional assay

B1: chimeric antigen receptor (CAR) 5.28.z, on the surface of clonal NK-92/5.28.z cells (receptor)
chain: QVQLQQSGPELKKPGETVKISCKASGYPFTNYGMNWVKQAPGQGLKWMGWINTSTGESTFADDFKGRFDFSLETSANTAYLQINNLKSEDSATYFCARWEVYHGYVPYWGQGTTVTVSSGGGGSGGGGSGGGGSDIQLTQSHKFLSTSVGDRVSITCKASQDVYNAVAWYQQKPGQSPKLLIYSASSRYTGVPSRFTGSGSGPDFTFTISSVQAEDLAVYFCQQHFRTPFTFGSGTKLEIKALSNSIMYFSHFVPVFLPAKPTTTPAPRPPTPAPTIASQPLSLRPEACRPAAGGAVHTRGLDKPFWVLVVVGGVLACYSLLVTVAFIIFWVRSKRSRLLHSDYMNMTPRRPGPTRKHYQPYAPPRDFAAYRSRVKFSRSADAPAYQQGQNQLYNELNLGRREEYDVLDKRRGRDPEMGGKPRRKNPQEGLYNELQKDKMAEAYSEIGMKGERRRGKGHDGLYQGLSTATKDTYDALHMQALPPR
- specific lysis at an E/T ratio of 10:1 (NK-92/5.28.z irradiated with 10 Gy, MDA-MB453 target cells, 2 h co-incubation): 65 % specific lysis

— US20170129967A1 (CHEMOTHERAPEUTISCHES FORSCHUNGSINSTITUT GEORG SPEYER HAUS, published 2017)
